One data set addresses HxlR-K13A (Bacillus subtilis 168, UniProt P42406 1-120, K13A). The experiment in a line: EMSA; no FA; higher basal binding than WT; EMSA: protein preincubated +/- FA (1 mM in Methods, 0.6 mM in legends) in 20 mM HEPES pH 7.5, 300 mM NaCl, 1-2 h, 37 C; then 50 nM dsDNA in 20 mM HEPES pH 7.0. A general note: In EMSA bound probe runs differently from free probe, usually more slowly.

Data set [1] deals with T1, HxlR-WT (Bacillus subtilis 168, UniProt P42406 1-120). The experiment in a line: EMSA; FA-treated (0.6 mM FA in text/legend; 1 mM in Methods); DNA binding enhanced; EMSA: protein preincubated +/- FA (1 mM in Methods, 0.6 mM in legends) in 20 mM HEPES pH 7.5, 300 mM NaCl, 1-2 h, 37 C; then 50 nM dsDNA in 20 mM HEPES pH 7.0.
For data set [2], the target named is T1, HxlR-WT. The experiment in a line: X-ray crystallography (2.9 A); 1 mM FA-treated protein; Cys11-CH2-Lys13 methylene bridge; 50 mM MgCl2 in crystallization; EMSA: protein preincubated +/- FA (1 mM in Methods, 0.6 mM in legends) in 20 mM HEPES pH 7.5, 300 mM NaCl, 1-2 h, 37 C; then 50 nM dsDNA in 20 mM HEPES pH 7.0.

This note sets out measurements from article PMC7835342.

B1: BRH (hxlAB promoter EMSA probe) (dsDNA)
DNA 1: CCTCACAGTATCCTCCAAGTAACTTGTTGACTTCAAAGTGCCTACTTCTC
DNA 2: GAGAAGTAGGCACTTTGAAGTCAACAAGTTACTTGGAGGATACTGTGAGG
Regarding B1, the binding result in the data set with HxlR-K13A and in the data set with HxlR-WT [1] was “binds” in each case.

B2: 20 bp palindromic crystallization DNA (dsDNA)
DNA 1: CAGTATCCTCGAGGATACTG
DNA 2: CAGTATCCTCGAGGATACTG
B2: the binding result with HxlR-WT [2] is reported as “binds”.
